# B1: IL-13: recombinant murine IL-13, an inflammatory mediator shown to mediate epithelial cell proliferation (protein, UniProt P20109 19-131, looked up)
# Interleukin-13: APGPVPRSVSLPLTLKELIEELSNITQDQTPLCNGSMVWSVDLAAGGFCVALDSLTNISNCNAIYRTQRILHGLCNRKAPTTVSSLPDTKIEVAHFITKLLSYTKQLFRHGPF
# Tested on: MTE cell cultures
# Experiment: IL-13 treatment of MTE cell cultures, Periodic Acid Schiff-stained cross-sections
# Type: cell-based, mouse
# Details: for proliferation of MTE cell cultures in response to IL-13: Method 2 cultures (5% serum until air/liquid interface)
# Procedure: FIGS. 2A and 2B includes two photographs of Periodic Acid Schiff-stained cross-sections of MTE cell cultures. FIG. 2B depicts the control culture that was only exposed to the normal media required for MTE cell growth, while FIG. 2A depicts the IL-13-treated culture which was exposed to recombinant murine IL-13 (10ng/ml) for 9 days.
# Epithelial cells isolated from the trachea of two mice were used to seed a one cm^2 area. Cells were placed in the apical chamber of the culture insert in medium comprising DMEM F12 plus additives (see above table). The basolateral chamber was supplied with medium and 10% FCS for 24 hours, after which FCS was no longer added to the basolateral media. Cells were maintained for 5 days and then the apical media was removed to create an air/liquid interface. Cells were then maintained in culture for approximately 16 more days.
# The present methods were also used to achieve MTE cultures grown with 5% serum until the air/liquid interface is established. This is referred to as “Method 2—Combination.” This approach allows for more rapid growth of the cells while removing the confounding effects of serum for the experimentation period. […] FIGS. 2A and 2B illustrate the increase in the epithelial cell number of cell cultures exposed to an IL-13 regimen. Specifically FIGS. 2A and 2B show two photographs of Periodic Acid Schiff-stained cross-sections of MTE cell cultures. FIG. 2A depicts an IL-13-treated culture that was exposed to recombinant murine IL-13 (10ng/ml) for 9 days while FIG. 2B is a photograph of a control culture that was only exposed to the normal media required for MTE cell growth.
molecule,measurement,setting,value
B1,proliferation of MTE cell cultures in response to IL-13,,respond to IL-13 with proliferation
same,proliferation of MTE cell cultures in response to IL-13,listed as interleukin 13,proliferate
same,epithelial cell number,"recombinant murine IL-13 10ng/ml for 9 days vs control culture in normal media, FIGS. 2A and 2B",increase in epithelial cell number

# — US6933149B2, “Culture system for mouse tracheal epithelial cells” (North Carolina State University, priority 2001, dated 2005)
